Test results reported in patent publication EP4345113A1 (SDS Optic Spolka Akcyjna, dated 2024).

Key:
[1] = target: T1, human epidermal growth factor receptor 2 (HER2), native, in SK-BR-3 and SK-OV-3 cells and cell lysates (human, UniProt P04626 23-1255); assay: immunofluorescence on fixed cells
T1 construct: whole, on cells; Detected in denatured cell lysates (Western blot) and in fixed cells (immunofluorescence); also called HER2 antigen; HER2 protein

[2] = target: HER2 antigen (as used in the ELISA binding assays and on the optoelectronic biosensors) (human) (UniProt P04626); assay: in vitro antigen binding curve (ELISA), half of the effective dose
[3] = target: T2, recombinant HER2 ECD domain (human, UniProt P04626 23-652); assay: Western blot
T2 construct: extracellular domain; also called extracellular domain of HER2

[4] = target: HER2 antigen (as used in the ELISA binding assays and on the optoelectronic biosensors) (human) (UniProt P04626); assay: direct ELISA, lot SDS-20220120 after 341 days at -80°C; amount of antibody that binds half of the available antigen
[5] = target: HER2 antigen (as used in the ELISA binding assays and on the optoelectronic biosensors) (human) (UniProt P04626); assay: direct ELISA, lot SDS-20211231 after 352 days at -80°C; amount of antibody that binds half of the available antigen
[6] = target: HER2 antigen (as used in the ELISA binding assays and on the optoelectronic biosensors) (human) (UniProt P04626); assay: direct ELISA, lot SDS-20220126 after 340 days at -80°C; amount of antibody that binds half of the available antigen
[7] = target: HER2 antigen (as used in the ELISA binding assays and on the optoelectronic biosensors) (human) (UniProt P04626); assay: direct ELISA, lot SDS-20211201 after 430 days at -80°C; amount of antibody that binds half of the available antigen

B1: mAb anti-human-HER2/70.27.58 - clone 58 (antibody, V domains shown)
VH: EVQLQQSGPELEKPGASVKISCKASGYSFTGYNMNWVKQSNGKSLEWIGTIDPNYGTSYNQKFKGKATLTVDKSSSTAYMHLKSLTSEDSSVYYCARRKVNYEAWFAFWGQGTLVTVSA
VL: DIVLTQSPASLAVSLGQRATISCRASESVDSYGNSFMHWYQQKPGQPPKLLIYRASNLESGIPARFSGSGSRTDFTLTINPVEADDVATYYCQQSNEDPFTFGSGTKLEIKR
notes: also called mAb anti-human-HER2/clone 58; anti-HER2/70.27.58
B1 was tested, and the binding result [1] was “binds”, the ED50 [2] was 0.0922 nM and the binding result [3] was “binds”.

B2: mAb anti-human-HER2/70.21.73.67 - clone 67 (antibody, V domains shown)
VH: EIQLQQSGPELVKPGASVRVSCKASGYSFTDYNMYWVRQSQGESLEWIGYIDHYNGNTGYNQKFRDKATLTVDKASSTAFMHLNSLTSEDSAVYYCARHYDYGAMDYWGQGTSVTVSS
VL: DIVMTQSQKFMSTSVGDRVSVTCKASQNVGTNVAWYQQKPGQSPKALIYSASYRYSGVPDRFTGSGSGTDFTLTISTVQSEDLAEYFCQHYYIYPLTFGAGTKLELKR
notes: Used as a biotin complex in the sandwich ELISA; No cleavage site is stated; also called mAb anti-human-HER2/clone 67; anti-HER2/70.21.73.67
With B2 the ED50 [4] was 0.004 µg, the ED50 [5] was 0.0043 µg and the binding result [1] was “binds”. The ED50 [6] was 0.0043 µg, the ED50 [2] was 0.235 nM and the ED50 [7] was 0.0046 µg. B2: binds [3].
